In test [1] the target is human TrkC (full-length TrkC receptor) (human) (UniProt Q16288). The test can be described thus: flow cytometry on HEK293 cells stably expressing TrkC-FL, background controls. In general terms: Flow cytometry measures light scatter and fluorescence of single cells or particles in a stream.
A further test concerns the target human TrkB (human) (UniProt Q16620). The test can be described thus: cell-based or functional assay.
For test [2], the target named is rat TrkB (on rat spiral ganglion neurons) (rat) (UniProt Q63604). The test is described as follows: cell-based or functional assay.
UniProt Q63604, sequence (Q63604 32-821): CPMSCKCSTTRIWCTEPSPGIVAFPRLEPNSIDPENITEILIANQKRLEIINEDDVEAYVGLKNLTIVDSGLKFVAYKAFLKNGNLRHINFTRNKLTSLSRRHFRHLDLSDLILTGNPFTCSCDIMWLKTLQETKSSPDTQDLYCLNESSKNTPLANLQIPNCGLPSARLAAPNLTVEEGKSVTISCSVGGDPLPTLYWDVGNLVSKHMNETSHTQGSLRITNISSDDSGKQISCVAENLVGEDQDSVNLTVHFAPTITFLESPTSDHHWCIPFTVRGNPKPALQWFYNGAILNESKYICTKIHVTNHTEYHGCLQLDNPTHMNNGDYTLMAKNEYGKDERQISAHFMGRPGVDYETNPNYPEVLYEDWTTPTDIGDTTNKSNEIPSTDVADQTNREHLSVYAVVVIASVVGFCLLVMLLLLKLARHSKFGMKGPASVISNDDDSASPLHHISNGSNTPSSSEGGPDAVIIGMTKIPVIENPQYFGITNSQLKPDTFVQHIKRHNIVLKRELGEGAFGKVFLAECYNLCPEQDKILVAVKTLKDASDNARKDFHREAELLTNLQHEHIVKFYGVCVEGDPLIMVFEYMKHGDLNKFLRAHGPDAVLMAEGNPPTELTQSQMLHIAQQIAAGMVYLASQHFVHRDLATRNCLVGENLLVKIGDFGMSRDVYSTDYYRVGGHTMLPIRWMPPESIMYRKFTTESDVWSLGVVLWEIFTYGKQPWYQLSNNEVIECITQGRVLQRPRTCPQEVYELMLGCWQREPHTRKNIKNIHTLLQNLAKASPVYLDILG
Test [3] has as its target human TrkC (full-length TrkC receptor) (human) (UniProt Q16288). The test can be described thus: cell-based or functional assay.
Test [4] addresses rat TrkC (on rat spiral ganglion neurons) (rat) (UniProt Q03351). The test is described as follows: cell-based or functional assay.
UniProt Q03351, sequence (Q03351 32-864): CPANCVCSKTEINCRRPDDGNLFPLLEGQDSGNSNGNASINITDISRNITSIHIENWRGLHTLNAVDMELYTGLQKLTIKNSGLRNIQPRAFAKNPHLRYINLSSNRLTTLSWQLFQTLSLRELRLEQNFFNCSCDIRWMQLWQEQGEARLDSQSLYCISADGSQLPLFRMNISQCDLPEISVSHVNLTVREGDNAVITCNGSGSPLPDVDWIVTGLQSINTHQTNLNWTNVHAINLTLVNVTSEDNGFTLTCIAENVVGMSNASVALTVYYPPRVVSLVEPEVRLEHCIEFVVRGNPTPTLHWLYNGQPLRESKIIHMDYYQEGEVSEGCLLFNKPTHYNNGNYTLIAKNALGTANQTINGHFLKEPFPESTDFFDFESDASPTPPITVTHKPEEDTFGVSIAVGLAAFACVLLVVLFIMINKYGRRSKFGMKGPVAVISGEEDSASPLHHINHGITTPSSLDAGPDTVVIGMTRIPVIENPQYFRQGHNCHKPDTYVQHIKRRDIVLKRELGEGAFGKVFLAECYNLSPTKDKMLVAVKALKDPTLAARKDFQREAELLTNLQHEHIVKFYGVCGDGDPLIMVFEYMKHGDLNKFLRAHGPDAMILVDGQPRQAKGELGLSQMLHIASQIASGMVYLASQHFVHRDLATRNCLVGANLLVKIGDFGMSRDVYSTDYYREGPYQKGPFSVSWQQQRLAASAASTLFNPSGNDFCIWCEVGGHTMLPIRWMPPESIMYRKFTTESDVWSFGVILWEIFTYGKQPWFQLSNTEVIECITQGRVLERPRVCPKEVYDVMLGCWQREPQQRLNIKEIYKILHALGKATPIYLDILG

UniProt Q16620, sequence (Q16620 32-822): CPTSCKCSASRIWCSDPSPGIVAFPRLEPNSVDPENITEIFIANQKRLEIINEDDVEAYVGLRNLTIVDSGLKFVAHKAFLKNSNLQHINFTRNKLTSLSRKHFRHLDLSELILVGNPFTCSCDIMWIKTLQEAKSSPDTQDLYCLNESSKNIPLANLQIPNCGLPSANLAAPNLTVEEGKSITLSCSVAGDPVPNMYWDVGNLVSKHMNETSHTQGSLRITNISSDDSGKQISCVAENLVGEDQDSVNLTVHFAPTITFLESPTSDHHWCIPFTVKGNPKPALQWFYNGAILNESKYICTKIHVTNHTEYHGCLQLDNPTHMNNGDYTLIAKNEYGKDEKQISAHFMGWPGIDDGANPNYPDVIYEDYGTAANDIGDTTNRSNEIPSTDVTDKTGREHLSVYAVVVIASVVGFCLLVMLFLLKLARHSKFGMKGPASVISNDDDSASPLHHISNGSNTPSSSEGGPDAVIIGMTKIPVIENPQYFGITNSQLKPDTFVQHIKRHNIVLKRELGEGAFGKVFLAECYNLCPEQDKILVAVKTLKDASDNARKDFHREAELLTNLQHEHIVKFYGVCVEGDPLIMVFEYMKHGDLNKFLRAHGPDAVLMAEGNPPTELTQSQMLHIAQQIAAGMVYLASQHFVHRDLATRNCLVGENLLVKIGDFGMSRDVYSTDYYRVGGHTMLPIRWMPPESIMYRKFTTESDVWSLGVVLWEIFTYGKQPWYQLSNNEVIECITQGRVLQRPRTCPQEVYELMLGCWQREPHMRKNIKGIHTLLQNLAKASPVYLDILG
UniProt Q16288, sequence (Q16288 32-839): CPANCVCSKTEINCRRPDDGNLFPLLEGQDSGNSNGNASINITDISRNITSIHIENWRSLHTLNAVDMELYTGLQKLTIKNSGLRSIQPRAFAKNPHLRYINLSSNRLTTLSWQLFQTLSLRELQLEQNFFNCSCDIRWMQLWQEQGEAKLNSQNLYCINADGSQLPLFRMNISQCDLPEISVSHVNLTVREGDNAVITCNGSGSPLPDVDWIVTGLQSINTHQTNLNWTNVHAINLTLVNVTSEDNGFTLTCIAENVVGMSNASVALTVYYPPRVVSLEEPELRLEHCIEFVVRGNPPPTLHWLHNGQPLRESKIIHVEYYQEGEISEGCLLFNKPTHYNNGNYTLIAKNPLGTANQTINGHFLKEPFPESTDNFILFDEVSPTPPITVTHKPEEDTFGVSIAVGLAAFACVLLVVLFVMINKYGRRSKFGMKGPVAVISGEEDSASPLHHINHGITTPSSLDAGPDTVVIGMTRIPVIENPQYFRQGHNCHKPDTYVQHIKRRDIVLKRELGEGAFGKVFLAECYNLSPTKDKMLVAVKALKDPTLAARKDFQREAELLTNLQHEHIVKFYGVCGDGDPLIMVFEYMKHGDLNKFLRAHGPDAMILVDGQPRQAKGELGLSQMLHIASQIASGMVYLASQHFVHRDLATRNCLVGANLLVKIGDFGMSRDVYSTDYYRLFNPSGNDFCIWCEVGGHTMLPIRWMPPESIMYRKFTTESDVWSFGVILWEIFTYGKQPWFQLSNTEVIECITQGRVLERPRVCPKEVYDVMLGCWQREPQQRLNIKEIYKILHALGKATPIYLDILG

The molecule “control mIgG (irrelevant mouse IgG, isotype-matched controls) (antibody)” had a mean channel fluorescence (mean channel fluorescence) in test [1] of 10.

B1: brain-derived neurotrophic factor (BDNF) (ligand, UniProt P23560 129-247, looked up)
chain: HSDPARRGELSVCDSISEWVTAADKKTAVDMSGGTVTVLEKVPVSKGQLKQYFYETKCNPMGYTKEGCRGIDKRHWNSQCRTTQSYVRALTMDSKKRIGWRFIRIDTSCVCTLTIKRGR
In the test with human TrkB (human), B1 displayed an EC50 of p-ERK response in HEK293 cells expressing human TrkB (AlphaLisa) of 0.3 nM and a Maximal Effect % of p-ERK response in HEK293 cells expressing human TrkB (relative to 10 nM BDNF) of 100%. The molecule further showed a rat spiral ganglion neuron survival relative to 1 nM NT-3 (100%) in test [2] of 92%.

B2: neurotrophin-3 (NT-3) (ligand)
chain: YAEHKSHRGEYSVCDSESLWVTDKSSAIDIRGHQVTVLGEIKTGNSPVKQYFYETRCKEARPVKNGCRGIDDKHWNSQCKTSQTYVRALTSENNKLVGWRWIRIDTSCVCALSRKIGRT
B2 displayed an EC50 of p-ERK response in 3T3 cells expressing human TrkC (AlphaLisa) in test [3] of 0.3 nM. The surviving rat spiral ganglion neurons per well, 4 days in culture in test [4] fell in the range of 10 to 20 neurons/well.

The values are drawn from US20200190201A1.
